# According to US20190375821A1 (IBENTRUS, published 2019):
# Key:
# NRP1 = molecular target: T1, NRP1 (UniProt O14786-2 22-644, limits assumed); assay: ELISA, VEGF165
# T1 construct: Control 'natural receptor'; also called neuropilin-1; neuropilin 1
# NRP2 = molecular target: T2, NRP2 (UniProt O60462 23-864, limits assumed); assay: ELISA, VEGF165
# T2 construct: Control 'natural receptor'
# T2 sequence (O60462 23-864 limits assumed): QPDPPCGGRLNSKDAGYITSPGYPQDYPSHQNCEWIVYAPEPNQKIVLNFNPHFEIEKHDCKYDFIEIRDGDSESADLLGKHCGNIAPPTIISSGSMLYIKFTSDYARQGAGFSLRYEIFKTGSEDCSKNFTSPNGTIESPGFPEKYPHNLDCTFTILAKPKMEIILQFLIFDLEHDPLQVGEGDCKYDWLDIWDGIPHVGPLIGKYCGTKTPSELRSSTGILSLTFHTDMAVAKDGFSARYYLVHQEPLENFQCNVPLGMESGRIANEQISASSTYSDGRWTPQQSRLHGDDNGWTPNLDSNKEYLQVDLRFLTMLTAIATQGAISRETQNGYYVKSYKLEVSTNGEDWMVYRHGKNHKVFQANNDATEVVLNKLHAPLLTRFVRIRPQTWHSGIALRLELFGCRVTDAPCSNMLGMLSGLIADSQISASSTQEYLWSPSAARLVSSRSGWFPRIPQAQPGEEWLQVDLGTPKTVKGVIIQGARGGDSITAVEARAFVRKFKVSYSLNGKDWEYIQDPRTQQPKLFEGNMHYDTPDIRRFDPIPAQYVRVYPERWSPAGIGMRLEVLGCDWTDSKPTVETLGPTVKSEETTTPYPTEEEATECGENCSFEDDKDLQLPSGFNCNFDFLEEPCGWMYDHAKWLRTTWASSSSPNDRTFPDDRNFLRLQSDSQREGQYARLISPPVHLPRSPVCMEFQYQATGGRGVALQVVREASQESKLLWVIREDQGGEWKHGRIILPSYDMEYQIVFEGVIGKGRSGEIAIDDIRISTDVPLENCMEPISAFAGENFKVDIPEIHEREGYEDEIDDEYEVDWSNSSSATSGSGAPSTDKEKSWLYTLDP
binder,measurement,setting,value
"VEGF165 (ligand, UniProt P15692-4 27-191, looked up, also called VEGFA) APMAEGGGQNHHEVVKFMDVYQRSYCHPIETLVDIFQEYPDEIEYIFKPSCVPLMRCGGCCNDEGLECVPTEESNITMQIMRIKPHQGQHIGEMSFLQHNKCECRPKKDRARQENPCGPCSERRKHLFVQDPQTCKCSCKNTDSRCKARQLELNERTCRCDKPRR",Kd,NRP1,0.312 nM
same,Kd,NRP2,8 nM
